Consider three proteins from PMC10401862, “A high-throughput dual system to screen polyphosphate kinase mutants for efficient ATP regeneration in L-theanine biocatalysis” (Biotechnology for Biofuels and Bioproducts, 2023).

Positions count from the first letter of the chain named. Names may count otherwise.

B1: ChPPK (Cytophaga hutchinsonii ATCC 33406) (protein)
chain: MATDFSKLSKYVETLRVKPKQSIDLKKDFDTDYDHKMLTKEEGEELLNLGISKLSEIQEKLYASGTKSVLIVFQAMDAAGKDGTVKHIMTGLNPQGVKVTSFKVPSKIELSHDYLWRHYVALPATGEIGIFNRSHYENVLVTRVHPEYLLSEQTSGVTAIEQVNQKFWDKRFQQINNFEQHISENGTIVLKFFLHVSKKEQKKRFIERIELDTKNWKFSTGDLKERAHWKDYRNAYEDMLANTSTKQAPWFVIPADDKWFTRLLIAEIICTELEKLNLTFPTVSLEQKAELEKAKAELVAEKSSD
notes: synthesized gene expressed in E. coli BL21(DE3) from pXMJ-19, Ni-NTA purified
B2: ChPPK (Cytophaga hutchinsonii ATCC 33406; D82N) (protein)
chain: B1 chain with D82N
notes: as for B1
B3: ChPPK (Cytophaga hutchinsonii ATCC 33406; K103E) (protein)
chain: B1 chain with K103E
notes: as for B1

Substrate in this series: Nc1ncnc2c1ncn2[C@@H]1O[C@H](COP(=O)(O)OP(=O)(O)O)[C@@H](O)[C@H]1O
In words: purified protein. The series is classed as biochemical, Cytophaga hutchinsonii. The note with it: 100 mM Tris-HCl pH 8.0, 35 °C, MgCl2, ADP 0.1 to 5 mM, polyP6 as co-substrate.
Consider B1, for which the Michaelis-Menten constant (Km) worked out at 1390 ± 70 µM, the kcat is 10 ± 0.13 s⁻¹ and the catalytic efficiency (kcat/Km) turned out to be 7220 M⁻¹ s⁻¹.
Regarding B2, the Michaelis-Menten constant (Km) worked out at 950 ± 30 µM, the catalytic constant (kcat) stood at 15.05 ± 0.04 s⁻¹ and the kcat/Km came out at 15800 M⁻¹ s⁻¹.
Turning to B3, the Km came out at 810 ± 120 µM, the kcat is 19.69 ± 0.12 s⁻¹ and the specificity constant (kcat/Km) was 24300 M⁻¹ s⁻¹.

For orientation: Km means the concentration of substrate that gives half-maximal velocity. Broadly, the kcat is the maximal rate divided by the concentration of active sites. A word on the kcat/Km: it is the second-order rate constant that governs catalysis at low substrate concentration.
